Assay results as given in the nanobody polyreactivity screen of Harvey et al. (2022).

Test: yeast display, Sf9 membrane polyspecificity reagent, FACS + sequencing; frameworks hold sequencing errors
How it was run: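 After 36–48 hours of galactose induction, yeast (Saccharomyces cerevisiae BJ5465) displaying a synthetic nanobody library were stained at 4 °C for 1 hour with 10% biotinylated, detergent-solubilized Sf9 membrane reagent. Streptavidin microbeads enriched the stained cells before FACS sorting into low and high (top ~1%) gates on anti-HA and streptavidin fluorescence. Each clone's polyreactivity label reflects its gate of origin.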

| Sequence | polyreactivity (PSR sort gate) |
| --- | --- |
| QVQLVESVGGLVQAGGSLGLTCAASGFIFRYYAMGWYRQAPGLERELVAPINASGGRTYYADSVKGRFTISRDNARNTLYLQMNSLKPEDTAVYYCAAYRSYQTFDYWGQGTQVTVSS | high polyreactivity |
| QFQLVESGGGLVQAGCSLRLSCAASGLTVGSNTMGWDRQAPGKERELVAAITSNGGSTYYADSVKGRFTISRDNAKNTVYLQMNSLIPEDTAVYYCAADDRGLISRRGYFYLSYDYWGQGTQVTVSA | low polyreactivity |
| QVQLVESGGGLVQAGGSLRLSCAASGRTFRENAMGWYRPAPGKERELVAAISWRAGSTYYADSVKGRFTISRDNAKNTVYLQMNSLKPEDTAVYYCAAKYTVSFYLWGTFNYWGQGTQVTVSS | high polyreactivity |
| QVQLVESGGGLVQAGGSLRLSCAASGSISGYYAMGWYRQAPGKERDLVASIRYTGARTYYADSVKGRFTISRDNAKNTVYVQMNSLKPEDTAVYYCAADVKRERVWGGDYWGLGTQVTVSS | low polyreactivity |
| QVQLEESGGRLVQAGGSLRLSCAASGRTFYPYAMGWYRQAPGKERELVAAISYRGGSTYYADSVKGRFTISRDNAKNTVYLQMNSLKPEDTAVYYCAKRGYASGSKWDYGYWGQGTQVTVSS | high polyreactivity |
| QVQLVESGGGLVQAGGSLRLSCAASGSIFGYYTMGWYRQAPGKERELVAAITSGGSTNYADSVKGRFTISRDNAKNTVYLQMNSLKPEDTAVYYCAKVSYYPWRYDYWGQGTQVTVSS | low polyreactivity |
| HVQLVESGGGLVQAGGSLRLSCAASGSIFYGNTMGWYRQAPGKEREFVAAINKSDDSTYYADSVKGRFTISRDNAKNTVYLQMNSLKPEDTAVYYCWGPGTQVTVSS | low polyreactivity |
| QVQLVESGGGLVQAGGSLPLICAASGSTSVVNAMGWYRQAHGKERELVATIPRVGRTYYADSVKGRFTISRDNAKNTVYLQMNSLKPEDTAVYYCASRLVGRSYKYDYWGQGTQVTVSS | high polyreactivity |
| QVQLVESGGGLVQTGGSLRLSCAASGSTFYPNTMGWYRQAPGKERELVAAITNGGSTNYADSVKGRFTISRDNAKNTVYLQMNSLKPEDTAVYYCAALYYRFLLGWYKYGYWGQGTQVTVSS | high polyreactivity |
| QVQLVESGGGLVQAGGSLRLSCAASGFIFAASALGWSRQAAGKEREFVAAISNSGTSTYYADSVKGRFTISRDNAKNTVYLQMNSLKPEDTAVYYCAAPWSTAYDYWGQGTQVTVSS | high polyreactivity |
| QVQLVESVGGLVQAVGSLRLSCAASGFTFSDYAMGWYRHAPGKERELVAAISTRCSSTYYADSVKGRFTISRDIAKNNVYLQMNSLKPEDTAVYYCNAVGSYSGYYYWGQGTQVTVSS | high polyreactivity |
| QVQLVESGGGLVQAGGSLRLSCAASGSTFSAYTMGWYRQAPGKERELVARITNGGSTYYAESVKGRFTISRDNAKNTVYLQMNSLKPEDTAVYYCAAQLGWWGSGYWGQGTQVTLSS | high polyreactivity |
| QDQIVESGGGLVQAGGSLRLSCAASGIIFWSYAMAWYRQAPGKERELVAAINTSGDSSYYADSVKGRFTISRDNAKNTVYLQMNSLKAEDTAVYYCAAKSSTRGDYWGQGTQVTVSS | low polyreactivity |
| QVQLVESGGGLVQAGGSLRLSCAASGRIFKYYVMGWYRQAPGKERELVAAISSGSGSTYYADSVKGRFTISRDNAKNTVYLQMNSLKPEDTAVYYCNALSSWRRTYGSRYDYWGQGTQVTVSS | high polyreactivity |
| QVQLVESGGGLVQAGGSLRLSCAASGLTFFGNAMGWYRQAPGKERELVATISSGGGTSYADSVKGRFTISRDNAKNTVYLQMNSLKPEDTAVYYCAADIVEEFDYWGQGTQVTVSS | low polyreactivity |
| QVQLVESGGGLVQAGGSLRLSCAASGSISAGNAMGWYRQAPGKERDLVAAISGSGGSTYYADSVKGRFTISRYNAKNTVYLQMNRLKPEDTAVYYCAARGGYRLRYIPYVRYDYWGQGTQVTVSS | high polyreactivity |
| QVQLVESGGGLVQAGGSLRLSCADSGRILTFNAMGWYRQAPGKERELVASISNGGSTNYADSVKGRFTISRDNAKNTVYLQMNSLKPEDTAVYYCDADWRQGMWYGYYYWGQGTQVTVSS | low polyreactivity |
| QVQLVESGGGLVQAGGSLRLSCAASGYMFGGYAMGWYRQAPGKAREFVAAISDISGSTYYADSVKGRFTISRDNAKNTVYLQMNSLKPEDTAVYYGGHTSTADEDYWGQGTQVTVSS | low polyreactivity |
| QVQLVDSGGGLVQAGGSLRLSCAASGRIFFANAMGWYRQAPGKERELVAAISWRGGSTYYADSVKGRFTISRDNAKNTVYLQKNSLKPEDTAVYYCAATSRGTDYWGQGTQVTLSS | high polyreactivity |
| QVQLVESGGGLVQAGGSLRLSCAASGIIFIYNAMGWYRQAPGKERELVGAIRRSGSPSYADSVKGRFTISRDNAKNTVYLQMNSLKPEDTAVYYCAADTSTWFGAYYLRDPYDYWGQGTQVTVSS | low polyreactivity |
| QVQLVESGGGLVQAGGSLRLSCAASGITFAYNAMGWYRQEPGKERELVARITSGGRTYYADSVKGRFTISRDNAKNTVYLQMNSLKPEDTAVYYCATPYTSYLYGYDYWGQGTQVTVSS | low polyreactivity |
| QVQLVESGGGLVQAGGSLRLSCAASGLIFVVYAMGWYRQAPGKERELVAVISSDGGTYYADSVKGRFTISRDNAKNTVYLQMNSLKPEDTAVYYCAALGYPNARTSRISYFRYDYWGQGTQVTVSS | high polyreactivity |

| Sequence | polyreactivity (PSR sort gate) |
| --- | --- |
| QVQLVESGGGLVQAGGSLRLSCAASGRIFALNAMVWYRQAPGKERELVAAITWGGGSTYYADSVKGRFTISRDNAKNTVYLQMNSLKPEDTAVYYCAADVPSRVYTVISVEVEYWGQGTQVTVSS | low polyreactivity |
| QVQLVESGGGLVQAGGSLRLSCAASGITFYGYTIGWYRQAPGKERELVATITRGGSTYYADSVKGRFTISLDNAKNTVYLQMNSLKPEDTAGYYCAAESQYDYGVEFDYWGQGTQVTVSS | low polyreactivity |
| QVQLVESGGGLVQAGGSLRLSCAATGRIFNYYAMGWYRQAPGKERELVAAISNGGSTYYADSVKGRFTISRDNAKNTVYLQMNSLKPEDTAVYYCNAAARNGYARRVYYWGQGTQVTVSS | high polyreactivity |
| QVQLVESGGGLVQAGGSLRLSCAASGRILYGYALGWYRQAPGKERELVAAISWSGTRTYDADSVQGRFTISRDNAKNTVYLQMNSLKPEDTAVYYCAARTHVPAEYDYWGQGTQVTVSS | high polyreactivity |
| QVQLVESGGGLVQAGGSLRLSCAASGRTFYRYAMGWYRQAPGKERELVATISRSGGSTYYADSVKGRFTISRDNAKNTVYLQMNSLKPEDTAVFYCNAEGYPWGFYTYDYWGQGTQVTVSS | low polyreactivity |
| QVQLVESGGGLVQAGGSLRLSCAASGFTFAWYAMGWYRQAPGKERELVAAINWSGGRTYYADSVKGRFTISRDNAKNTVYLQMNSLKPEDTAVYYCAAPHLVKRSEFDYWGQGTQVTVSS | high polyreactivity |
| QVQLVDSGGGLVQAGGSLRLSCAAYGLTFTYYDMGWYRQAPGNERELVATFSWSDSSTYADSVKGRFTISRDNAKNTVYLQMNSLKPEDTAVYYCNKVSYYTYDVDYWGQRTQVTVSS | low polyreactivity |
| QVQLVESGGGLVQAGGSLRLSCAASGSTFTVNDMGWYRQAPGKERELVAAITQRDGRTFYADSVKGRFTISRDNAKNTVYLQMNSLKPEDTAVYYCAATFIQVVVNVQLYDYDYWGQGTQVTVSS | low polyreactivity |
| QVQLVESGGGLVQAGGSLRLSCAASGSIFWYYAMGWYRQAPGKERELVASITSAGSTNYADSVKGRFTISRDNAKNTVYLQMNSLKPEDTAVYYCNTDDDSSSTGYYSWGQGTQVTVSS | low polyreactivity |
| HVQLVESGGGLGQAGGSLRLSCAASGSIFYVNAIGWYRQAPGKERELVADITWSGGSTYYADSVKGRFTISRDHAQTTVYLQMNSLKPEDTAVYYCAAKVKHWYYPYYYWGQGTQVTVSS | low polyreactivity |
| QVQIVESGGGLVQAGGSLRLSCAASGTTFDAYAMGWYRQAPGKERELVAAITNAGSTNYADSVKGRFTISRDNAKNTVYLQMNSLKPEETAVYYCATDWYHRYLDGRYDYWGQGTQETVSS | low polyreactivity |
| QVQLVESGGGLVQAGGSLRLSCAASGSIFGQNAMGWYRQAPGKERELVAAITSGAGITYYADSVKGRFTISRDNAKNTVYLQMNSLKPEDTAVYYCNAVPSWTPSPLFDYWGLGTQVTVSS | low polyreactivity |
| QVQLVESVGGLVQAGGILRLSCAASGSTFLDNAMGLYRQAPGKERELVAAITQSGSSTYYADSVKGRFTISRDNAKNTVYLQMNSLKPEDTAVYYCAADVPIISFDYWGQGTQVTVSS | low polyreactivity |
| QVQLVESGGALVQAGGSLRLSCAASGSTFVYYAMRWYRQTPGKERELVAAIRSDASTNYADSVKGRFTISRDNAKNTVYLQMNILKPEDTAVYYCNTAQLVSDEFDYWGQGTQVTVSS | low polyreactivity |
| QVQLVESGGGLVQAGGRLRLSCAASGIIFTPYAMGRYRQAPGKERELVAAISWIGGRTYYADSVKGRFTISRDKAKNTVYLQMNSLKPEDTAVYYCAASYRAWSGNYWGQGTQVTVSS | high polyreactivity |
| QVQLVESGGGLVQAGGSLRLSCAASGRIFYYYAMGWYRQAPGKERELVAGIDSGDSTNYADSVKGRFTISRDNAKYTVYLQMNSLKPEDTAVYYCAALHFGGYFSYYPYYYWGQGTQVTVSS | low polyreactivity |
| QVQLQESGGGLVQACGSLRLSCAASGYIFSHQYMGWYRQAPGKERELVASISPGATTNYADSVKGRFTISRDNAKNTVFLQMNSLKPEDTAVYYYAVYQMLDRRLSYWGQGTQVTVSC | high polyreactivity |
| QVQLVESGGGLVQAGGSLRLSCAASGRIFYDNAMGWYRQAPGKERELVAAISYSGDSTYYADSVKGRFTISRDNAKNTVYLQMNSLKPEDTAVYYCAAVYISQGAFAYDYWGQGTQVTVSS | low polyreactivity |
| QVQLVESGGGLVQAGGSLRLSCAASGTISAYAMGWYRQAPGKERELVAAITRTGGSTYYADSVKGRFTISRDNAKNTVYLQMNSLKPEDTAVYYCATEFRYREFYYWGQGTQVTVSS | high polyreactivity |
| QVQLVESGGGLVQAGGSLRLSCAASGRTFHYYAMGWYRQAPGKERELVAAINFSGDNTYYADSVKGRFTISRDNAKNTVYLQLNSLKPEDTAVYYCAARREYARYKGYYYWGQGTQVTVSS | low polyreactivity |
| QVQLVESGGGLVQAGGSLRLSCAASGFIFVQYAMGWYRQAPGKERELVAAITKSGGRTYYADSVKGRFTISRDNAKNTVYLQMNSLKPEDTAVYYCAALGNGNFPTVDYWGQGTQVTVSS | high polyreactivity |
